Source: US20230242654A1 (published 2023)

Target: anti-CD19 CAR having an scFv derived from FMC63 (expressed on T cells) (Mus musculus (Mouse), UniProt P01644 1-106)
Assay: cell-based or functional assay

Sequence of anti-CD19 CAR having an scFv derived from FMC63 (expressed on T cells) (VH, as listed by the source, chain 1 of 2): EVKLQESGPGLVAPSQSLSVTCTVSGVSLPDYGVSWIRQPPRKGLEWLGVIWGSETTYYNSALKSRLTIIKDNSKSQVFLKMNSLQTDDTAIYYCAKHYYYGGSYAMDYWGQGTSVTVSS
Sequence of anti-CD19 CAR having an scFv derived from FMC63 (expressed on T cells) (P01644 other isoform, or with tags, fused parts or gaps, chain 2 of 2): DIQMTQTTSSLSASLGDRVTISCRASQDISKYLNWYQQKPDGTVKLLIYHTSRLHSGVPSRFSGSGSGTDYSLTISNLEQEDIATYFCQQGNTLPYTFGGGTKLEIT

B1: Anti-ID B-1 (FMC63-derived scFv-specific anti-idiotype antibody) (antibody, mouse IgG2a, kappa, V domains shown)
VH: EVQLQQSGPELVKPGASVKMSCKASGYTFTDYYMKWVKQCHGKSLEWIGDINPNNGGTDYNQNFKGKATLTVDKSSSTAYMQLNSLTSEDSAVYYCAREGNNYGSRDAMDYWGQGTSVTVSS
VL: QIVLTQSPALMSASPGEKVTMTCSASSGVIYMYWYQQKPRSSPKPWIYLTSNLASGVPARFSGSGSGTSYSLTISSMEAEDAATYYCQQWSSNPLTFGAGTKLELKR
fold expansion of CAR-expressing (EGFRt+) CD4+ T cells cultured alone with anti-ID B-1 conjugated beads, up to 9 days: > 60 fold
